B1: MAdCAM antibody Clone ID 35 of Table 7 (IgG) (antibody, V domains shown)
VH: QVQLVQSGAEVKKPGASVKVSCKASGYTFTGYYIHWVRQAPGQGLEWMGWMNPNSGNTGYAQKFQGRVTMTRDTSTSTVYMELSSLRSEDTAVYYCARDPGFLGYSSGGSSYDGWFDPWGQGTLVTVSS
VL: DIQMTQSPSSLSASVGDRVTITCRASQSISSYLHWYQQKPGKAPKLLIYAASSLQSGVPSRFSGSGSGTDFTLTISSLQPEDFATYYCQQSYTAPYTFGQGTKLEIK
notes: IgG format
B2: MAdCAM antibody Clone ID 32 of Table 7 (IgG) (antibody, V domains shown)
VH: QVQLVQSGAEVKKPGASVKVSCKASGYTLTTWYMYWVRQAPGQGLEWMGWINPNRGATNYAQKFQGRVTMTRDTSTSTVYMELSSLRSEDTAVYYCAKGDLWGAMDVWGQGTLVTVSS
VL: DIQMTQSPSSLSASVGDRVTITCRASDNIGSWLAWYQQKPGKAPKLLIYAASSLQSGVPSRFSGSGSGTDFTLTISSLQPEDFATYYCQQGYSTPPTFGQGTKVEIK
notes: IgG format
B3: MAdCAM antibody Clone ID 12 of Table 7 (IgG) (antibody, V domains shown)
VH: QVQLVQSGAEVKKPGASVKVSCKASGYTLTTWYMYWVRQAPGQGLEWMGWINPNRGATNYAQKFQGRVTMTRDTSTSTVYMELSSLRSEDTAVYYCAKGDLWGAMDVWGQGTLVTVSS
VL: DIQMTQSPSSLSASVGDRVTITCRASDNIGSWLAWYQQKPGKAPKLLIYAASSLQSGVPSRFSGSGSGTDFTLTISSLQPEDFATYYCQQGYSTPPTFGQGTKVEIK
notes: IgG format
B4: MAdCAM antibody Clone ID 33 of Table 7 (IgG) (antibody, V domains shown)
VH: QVQLVQSGAEVKKPGASVKVSCKASGYTLTTWYMYWVRQAPGQGLEWMGWINPNRGATNYAQKFQGRVTMTRDTSTSTVYMELSSLRSEDTAVYYCAKGDLWGAMDVWGQGTTVTVSS
VL: DIQMTQSPSSLSASVGDRVTITCRASDNIGSWLAWYQQKPGKAPKLLIYAASSLQSGVPSRFSGSGSGTDFTLTISSLQPEDFATYYCQQGYSTPPTFGQGTKVEIK
notes: IgG format
B5: MAdCAM antibody Clone ID 40 of Table 7 (IgG) (antibody, V domains shown)
VH: QVQLVQSGAEVKKPGASVKVSCKASGYTLTTWYMYWVRQAPGQGLEWMGWINPNRGATNYAQKFQGRVTMTRDTSTSTVYMELSSLRSEDTAVYYCAKGDLWGAMDVWGQGTLVTVSS
VL: DIQMTQSPSSLSASVGDRVTITCRASDNIGSWLAWYQQKPGKAPKLLIYAASSLQSGVPSRFSGSGSGTDFTLTISSLQPEDFATYYCQQGYSTPPTFGQGTKVEIK
notes: IgG format
B6: MAdCAM antibody Clone ID 45 of Table 7 (IgG) (antibody, V domains shown)
VH: EVQLVESGGGLVKPGGSLRLSCAASGFTFGDYAMSWVRQAPGKGLEWVSYISGDIGYTNYAAPVKGRFTISRDDSKNTLYLQMNSLKTEDTAVYYCARDVAATGNWYFDLWGRGTLVTVSS
VL: not shown
notes: IgG format
B7: MAdCAM antibody Clone ID 53 of Table 7 (IgG) (antibody, V domains shown)
VH: QVQLVQSGAEVKKPGASVKVSCKASGYTFTSYYMHWVRQAPGQGLEWMGWMNPNSGNTGYAQKFQGRVTMTRDTSTSTVYMELSSLRSEDTAVYYCAREGLGYCTNGVCWNYYGMDVWGQGTLVTVSS
VL: DIQMTQSPSSLSASVGDRVTITCRASQGISSWLAWYQQKPGKAPKLLIYGASSLQSGVPSRFSGSGSGTDFTLTISSLQPEDFATYYCQQSYSTPYTFGQGTKVEIK
notes: IgG format
B8: MAdCAM antibody Clone ID 54 of Table 7 (IgG) (antibody, V domains shown)
VH: QVQLVQSGAEVKKPGSSVKVSCKASGGTLSRYGVSWVRQAPGQGLEWMGGIIPIFGTTNYAQKFQGRVTITADESTSTAYMELSSLRSEDTAVYYCARDRVYYDSSGYPTWYFDLWGRGTLVTVSS
VL: EIVMTQSPATLSVSPGERATLSCRASQSVSSSYLAWYQQKPGQAPRLLIYGASTRATGIPARFSGSGSGTEFTLTISSLQSEDFAVYYCQQYGSSPITFGQGTKVEIK
notes: IgG format
B9: MAdCAM antibody Clone ID 55 of Table 7 (IgG) (antibody, V domains shown)
VH: EVQLLESGGGLVQPGGSLRLSCAASGFTFDDFAMHWVRQAPGKGLEWVSGISGNGDSRYYADSVKGRFTISRDNSKNTLYLQMNSLRAEDTAVYYCARDASYGGNYGMDVWGQGTTVTVSS
VL: DIQMTQSPSSLSASVGDRVTITCQASQDIRNYLNWYQQKPGKAPKLLIYKASTLESGVPSRFSGSGSGTDFTLTISSLQPEDFATYYCQQANSFPLTFGPGTKVDIK
notes: IgG format
B10: MAdCAM antibody Clone ID 56 of Table 7 (IgG) (antibody, V domains shown)
VH: EVQLVESGGGLVKPGGSLRLSCAASGFTFSSYWMSWVRQAPGKGLEWVSAIGTGGGTYYAAPVKGRFTISRDDSKNTLYLQMNSLKTEDTAVYYCAREWLVPYYGMDVWGQGTTVTVSS
VL: DIQMTQSPSSLSASVGDRVTITCRASQSISRWLAWYQQKPGKAPKLLIYGASNLQSGVPSRFSGSGSGTDFTLTISSLQPEDFATYYCQQSYSTPWTFGQGTKVEIK
notes: IgG format
B11: MAdCAM antibody Clone ID 61 of Table 7 (IgG) (antibody, V domains shown)
VH: QVQLVQSGAEVKKPGASVKVSCKASGDTFTGYYIHWVRQAPGQGLEWMGWINPNSGGTNYAQKFQGRVTMTRDTSTSTVYMELSSLRSEDTAVYYCARSGLWLGSYYGMDVWGQGTLVTVSS
VL: DIQMTQSPSSLSASVGDRVTITCRASQTISIWLAWYQQKPGKAPKLLIYDASTLQSGVPSRFSGSGSGTDFTLTISSLQPEDFATYYCQQYSSYPLTFGQGTKVEIK
notes: IgG format
B12: MAdCAM antibody Clone ID 62 of Table 7 (IgG) (antibody, V domains shown)
VH: QVQLVQSGAEVKKPGASVKVSCKASGYTFTSYDINWVRQAPGQGLEWMGWINPNSGTTGYAQKFQGRVTMTRDTSTSTVYMELSSLRSEDTAVYYCARSPYYYYGMDVWGQGTTVTVSS
VL: DIQMTQSPSSLSASVGDRVTITCRASHFISRWVAWYQQKPGKAPKLLIYAASTLQSGVPSRFSGSGSGTDFTLTISSLQPEDFATYYCQQSYSGISFGPGTKVDIK
notes: IgG format
B13: MAdCAM antibody Clone ID 63 of Table 7 (IgG) (antibody, V domains shown)
VH: EVQLLESGGGLVQPGGSLRLSCAASGFTFNNYGMNWVRQAPGKGLEWVSRINSDGSSTSYADSVKGRFTISRDNSKNTLYLQMNSLRAEDTAVYYCARGAYYYYYMDVWGQGTLVTVSS
VL: EIVMTQSPATLSVSPGERATLSCRASQSVSGSYLAWYQQKPGQAPRLLIYATSSRASGIPARFSGSGSGTEFTLTISSLQSEDFAVYYCQQYYSGLTFGQGTKVEIK
notes: IgG format
B14: MAdCAM antibody Clone ID 64 of Table 7 (IgG) (antibody, V domains shown)
VH: EVQLLESGGGLVQPGGSLRLSCAASGFTFSNSDMNWVRQAPGKGLEWVAHIWNDGSQKYYADSVKGRFTISRDNSKNTLYLQMNSLRAEDTAVYYCARDRTDPGYSSAMDVWGQGTTVTVSS
VL: DIQMTQSPSSLSASVGDRVTITCRASQDIRNYLGWYQQKPGKAPKLLIYDASSLETGVPSRFSGSGSGTDFTLTISSLQPEDFATYYCQQATSLPLTFGGGTKVEIK
notes: IgG format
B15: MAdCAM antibody Clone ID 66 of Table 7 (IgG) (antibody, V domains shown)
VH: QVQLVQSGAEVKKPGASVKVSCKASGYTFTGHYMHWVRQAPGQGLEWMGIINPSGGSTSYAQKFQGRVTMTRDTSTSTVYMELSSLRSEDTAVYYCARDGAWFGEEYYYGMDVWGQGTTVTVSS
VL: DIQMTQSPSSLSASVGDRVTITCRASQGISNWLAWYQQKPGKAPKLLIYDASNLETGVPSRFSGSGSGTDFTLTISSLQPEDFATYYCQQYYSFPLYTFGQGTKVEIK
notes: IgG format
B16: MAdCAM antibody Clone ID 67 of Table 7 (IgG) (antibody, V domains shown)
VH: QVQLVQSGAEVKKPGASVKVSCKASGYTFTGYYMHWVRQAPGQGLEWMGMIYPRDGSTSYAQKFQGRVTMTRDTSTSTVYMELSSLRSEDTAVYYCAMTGWGYGMDVWGKGTTVTVSS
VL: DIQMTQSPSSLSASVGDRVTITCRASQGINNYLAWYQQKPGKAPKLLIYDASTLQSGVPSRFSGSGSGTDFTLTISSLQPEDFATYYCQQSYSAPPTFGQGTKLEIK
notes: IgG format

biological target: T1, mouse MAdCAM expressed on cells (mouse, UniProt Q61826 22-405); assay: cell binding
T1 construct: whole, on cells
T1 sequence (looked up): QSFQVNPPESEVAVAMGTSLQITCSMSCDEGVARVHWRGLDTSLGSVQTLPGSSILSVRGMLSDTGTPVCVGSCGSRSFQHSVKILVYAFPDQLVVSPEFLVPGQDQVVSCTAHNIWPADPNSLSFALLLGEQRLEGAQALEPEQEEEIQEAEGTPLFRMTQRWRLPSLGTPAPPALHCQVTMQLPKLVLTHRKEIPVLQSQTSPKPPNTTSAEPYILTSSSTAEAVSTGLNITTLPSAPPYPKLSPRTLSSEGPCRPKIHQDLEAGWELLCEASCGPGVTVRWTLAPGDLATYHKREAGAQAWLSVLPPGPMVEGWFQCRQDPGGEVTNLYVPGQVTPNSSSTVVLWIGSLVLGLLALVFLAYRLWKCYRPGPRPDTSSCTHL

Binding result, no binding:
B1, B2, B3, B4, B5, B6, B7, B8, B9, B10, B11, B12, B13, B14, B15, B16

Source: patent US20200392228A1 (PANDION OPERATIONS, published 2020)
